According to US20170210813A1 (Regeneron, published 2017):
Where a chain is given by its changes, count along the chain named. Names and notes keep the numbering of the source.

T1: Macaca fascicularis PDGFRb.mmh (Macaca fascicularis)
T1 construct: Soluble monomeric construct; also called mfPDGFRb.mmh
T1 chain: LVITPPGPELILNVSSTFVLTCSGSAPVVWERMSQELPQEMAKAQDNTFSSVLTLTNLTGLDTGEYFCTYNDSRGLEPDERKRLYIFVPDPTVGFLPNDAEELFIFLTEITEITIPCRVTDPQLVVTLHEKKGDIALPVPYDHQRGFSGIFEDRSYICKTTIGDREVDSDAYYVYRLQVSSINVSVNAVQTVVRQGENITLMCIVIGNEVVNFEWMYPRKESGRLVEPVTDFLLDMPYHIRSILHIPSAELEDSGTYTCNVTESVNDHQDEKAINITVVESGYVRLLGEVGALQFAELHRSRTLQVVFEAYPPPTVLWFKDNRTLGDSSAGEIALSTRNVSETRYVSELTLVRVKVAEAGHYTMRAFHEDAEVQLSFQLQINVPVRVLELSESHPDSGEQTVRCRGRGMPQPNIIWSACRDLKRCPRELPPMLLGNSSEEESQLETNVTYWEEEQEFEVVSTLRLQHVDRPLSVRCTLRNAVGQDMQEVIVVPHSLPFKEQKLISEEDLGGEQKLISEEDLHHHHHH

B1: H4H3096S (antibody, human IgG4, V domains shown)
VH: EVQLVQSGGSLVQPGGSLRLSCTASGFTFSSYWMSWVRQAPGKGLEWVANIQQDESEKYYVDSVKGRFSISRDNAKKSLYLQMNSLRAEDTAVYFCARDLVPPRQGDYYHYFGMDVWGQGTLVTVSS
VL: AIRMTQSPSTLSASVGDRVTITCRASQSISDWLAWYQQKPGKAPNLLIYKASSLESGVPSRFSGSGSGTEFTLTISGLQPDDFATYYCQQYNSYSRTFGQGTKLEIKR
notes: human IgG4 Fc (H4H prefix)
B2: H4H3098S (antibody, human IgG4, V domains shown)
VH: EVQLVESGGGVVQPGRSLRLSCAASGFTFSNYGMHWVRQAPGKGLEWVTVIWYDGSYKYYADSVKGRFTISRDNSKNRLYLQMNSLRAEDTAVYYCARGELGDAFDIWGQGTMVTVSS
VL: DIQMTQSPSTLSASVGDRLTITCRASQSISTWLAWYQQKPGKAPTLLIYKASSLESGVPSRFSGSGSGTDFTLTISSLQPDDFATYYCQQYKTSWTFGQGTKLEIKR
notes: human IgG4 Fc (H4H prefix)
B3: H4H3102S (antibody, human IgG4, V domains shown)
VH: EVQLVESGGDLVHPGRSLRLSCVASGFTFDDYTMHWVRQAPGKGLEWVSAISWNGDNINYAGSVKGRFTISRDNAKNSLYLEMNSLRVEDTAFYYCAKGRGFSFGFNYLGQGTMVTVSS
VL: AIRMTQSPSSLSASVGDRVTITCRASQDISNYLAWFQQQPGKAPKSLIYATSSLNSGVPSKFSGSGSGTDFTLTISSLQPEDFATYYCQQYKSYPLTFGGGTKVEIK
notes: human IgG4 Fc (H4H prefix)
B4: H4H3104S (antibody, human IgG4, V domains shown)
VH: QVQLVESGGGLVQPGGSLRLSCAAAGFTFSHYWMSWVRQAPGKGLEWVATIKKDGSERYYVDSVKGRFTISRDNARNSMYLEMNSLRTEDTAIYYCARDIVTPNTDYYFGMDVWGQGTTVTVSS
VL: DIQLTQSPSTLSASVGDRVTITCRASQSFNNWLSWYQQKPGKAPKLLIYMASTLESGVPSRFSGSGSGTDFTLTINSLQPDDFATYYCQQSNSYSRTFGHGTKVEIK
notes: human IgG4 Fc (H4H prefix)
B5: H4H3105S (antibody, human IgG4, V domains shown)
VH: B1 VH with E1Q, Q6E, S21A, S56N, A88V, L122T
VL: B4 VL with F29I, N30S, N31D, S34A, K45N, M50K, D70E, N76S, S91Y, H100Q
notes: human IgG4 Fc (H4H prefix)
B6: H4H3106S (antibody, human IgG4, V domains shown)
VH: QVQLVESGGGLVQPGGSLRLSCAASGFTFSSYWMSWVRQVPGKGLEWVANMNQDGTEKYYVDSVKGRLTISRENVKNSLYLQMNGLRAEDTAVYYCARDLVPPRQGDYYYYFGMDVWGHGTMVTVSS
VL: AIQMTQSPSTLSASVGDIVTITCRASQSISDWLAWYQQKPGKAPKLLIFKASSLESGVPSRFSGSGSGTDFTLTISSLQPDDFATYYCQQYNSYSRTFGQGTKVDIK
notes: human IgG4 Fc (H4H prefix)
B7: H4H3097S (antibody, human IgG4, V domains shown)
VH: QVQLVESGAEMKKPGASVKVSCKASGYTFTDYGINWVRQAPGQGLEWMGWVSGYNGNTVFAQKIQGRVTMTTDTSTSTAYMELRSLRSDDTAVYFCARISVRGHSYYHGMGVWGQGTTVTVSS
VL: AIRMTQSPSSLSASVGDRVTITCRASQDINSYLAWFQQKPGKAPKSLIYTASSLQSGVPSKFSGSGSGTDFTLTISSLQPEDFATYYCQQYNTYPYTFGQGTKVESK
notes: human IgG4 Fc (H4H prefix)

Target: full length human PDGFR-beta on HEK293 cells (human, UniProt P09619 33-1106)
Assay: cell-based or functional assay

full length human PDGFR-beta on HEK293 cells, sequence (P09619 33-1106 limits assumed): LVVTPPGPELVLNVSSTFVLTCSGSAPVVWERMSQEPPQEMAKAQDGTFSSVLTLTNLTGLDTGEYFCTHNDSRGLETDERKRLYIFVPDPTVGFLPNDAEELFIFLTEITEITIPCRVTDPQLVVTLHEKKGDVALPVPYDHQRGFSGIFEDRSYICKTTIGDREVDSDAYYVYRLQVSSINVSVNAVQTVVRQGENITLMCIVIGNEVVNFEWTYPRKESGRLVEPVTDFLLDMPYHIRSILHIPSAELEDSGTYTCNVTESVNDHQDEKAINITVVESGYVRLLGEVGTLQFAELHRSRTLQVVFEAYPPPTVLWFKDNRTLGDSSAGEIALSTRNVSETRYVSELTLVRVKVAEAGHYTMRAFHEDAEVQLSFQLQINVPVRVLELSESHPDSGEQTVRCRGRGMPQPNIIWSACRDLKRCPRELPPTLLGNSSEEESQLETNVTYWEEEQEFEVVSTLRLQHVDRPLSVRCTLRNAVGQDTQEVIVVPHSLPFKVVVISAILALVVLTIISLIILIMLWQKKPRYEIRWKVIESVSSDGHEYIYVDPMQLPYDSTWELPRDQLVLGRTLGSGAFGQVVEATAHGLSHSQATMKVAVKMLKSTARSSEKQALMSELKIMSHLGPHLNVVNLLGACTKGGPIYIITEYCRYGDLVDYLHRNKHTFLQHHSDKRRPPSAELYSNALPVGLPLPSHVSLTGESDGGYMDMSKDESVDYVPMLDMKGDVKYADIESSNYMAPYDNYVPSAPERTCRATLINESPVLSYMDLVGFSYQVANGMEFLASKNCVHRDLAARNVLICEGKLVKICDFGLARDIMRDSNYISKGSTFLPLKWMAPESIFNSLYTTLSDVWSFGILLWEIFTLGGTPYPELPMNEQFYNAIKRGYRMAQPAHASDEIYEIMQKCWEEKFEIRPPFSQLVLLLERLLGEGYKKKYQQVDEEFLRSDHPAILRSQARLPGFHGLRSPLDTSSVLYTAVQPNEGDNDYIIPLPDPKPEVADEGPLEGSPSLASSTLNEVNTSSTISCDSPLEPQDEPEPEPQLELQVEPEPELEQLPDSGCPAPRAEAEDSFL

Row | Binder | IC50, blocking PDGF-BB (250 pM) activation, SRE-luciferase [M] | IC50, blocking PDGF-DD (400 pM) activation, SRE-luciferase [M]
1 | B1 | 4.5e-10 | 5.8e-10
2 | B2 | 1.2e-09 | 1.1e-09
3 | B3 | 4.1e-09 | 4.4e-09
4 | B4 | 5e-10 | 3.3e-10
5 | B5 | 5.8e-10 | 5.1e-10
6 | B6 | 7.4e-10 | 5.2e-10

Target: T2, hPDGFRb.mmh (human, UniProt P09619 33-531)
T2 construct: Soluble monomeric construct; also called soluble human PDGFR-beta.mmh
Assay: blocking ELISA, biot-hPDGFRb.mmh to coated PDGF-BB
Method: The equilibrated PDGFR-beta/antibody solutions were added to ligand-coated plates, allowed to incubate for 1 hr, and washed. Levels of bound biot-hPDGFR-beta.mmh were detected using HRP conjugated streptavidin. Data were analyzed using Prism software and IC₅₀ values were calculated as the amount of antibody required to achieve 50% reduction of hPDGFR-beta-mmh bound to ligand. Maximum blocking values were also calculated and reflect the ability of the antibody to block relative to baseline. The absorbance measured at the constant amount of 250 pM biot-hPDGFR-beta-mmh on the dose curve is defined as 0% blocking and the absorbance with no added PDGFR-beta is defined as 100%. The absorbance of the wells containing the highest antibody concentration determined the maximum blocking percent.
Target sequence in this assay (P09619 other isoform, or with tags, fused parts or gaps): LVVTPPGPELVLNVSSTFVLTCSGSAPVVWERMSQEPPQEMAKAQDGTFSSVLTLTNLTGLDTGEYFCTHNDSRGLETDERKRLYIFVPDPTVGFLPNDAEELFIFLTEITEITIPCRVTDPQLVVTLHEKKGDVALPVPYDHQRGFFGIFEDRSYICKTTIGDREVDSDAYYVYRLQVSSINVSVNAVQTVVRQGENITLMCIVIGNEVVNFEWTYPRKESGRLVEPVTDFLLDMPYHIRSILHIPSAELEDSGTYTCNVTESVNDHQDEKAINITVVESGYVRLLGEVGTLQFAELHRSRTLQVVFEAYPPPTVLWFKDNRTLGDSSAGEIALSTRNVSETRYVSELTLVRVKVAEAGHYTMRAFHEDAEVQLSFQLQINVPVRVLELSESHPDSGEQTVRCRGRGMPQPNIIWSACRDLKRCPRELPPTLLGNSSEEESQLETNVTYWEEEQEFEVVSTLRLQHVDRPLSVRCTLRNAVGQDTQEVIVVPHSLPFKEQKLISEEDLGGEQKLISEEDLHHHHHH

Row | Binder | % Maximum Blocking [%] | IC50 [nM]
7 | B1 | 84 | 0.18
8 | B2 | -13 | 
9 | B3 | 30 | 
10 | B4 | 89 | 0.38
11 | B5 | 86 | 0.16
12 | B6 | 86 | 0.17
13 | B7 | 5 | 

Target: T3, human PDGFRb.hFc (human)
T3 construct: Soluble dimeric construct with human Fc; also called hPDGFRb.hFc
Assay: SPR, mAb captured, 25 C
Method: (§1) Antibodies, expressed as either mouse Fc (prefix H1M; H2M) or human Fc (prefix H4H), were captured on their respective anti-Fc sensor surfaces (Mab capture format). […] Kinetic association (kₐ) and dissociation (kd) rate constants were determined by processing and fitting the data to a 1:1 binding model using Scrubber 2.0 curve fitting software.

Row | Binder | Kd [nM] | koff [s⁻¹] | kon [M⁻¹ s⁻¹] | t1/2 [min] | binding result
14 | B1 | 1.17 | 0.00026 | 222000 | 44 | 
15 | B2 | 0.219 | 6.22e-05 | 280000 | 186 | 
16 | B3 | 0.39 | 0.000118 | 300000 | 98 | 
17 | B4 | 0.304 | 0.000146 | 480000 | 79 | 
18 | B5 | 0.91 | 0.000225 | 247000 | 51 | 
19 | B6 | 0.686 | 0.000215 | 314000 | 54 | 
20 | B7 |  |  |  |  | no binding

Target: T2, hPDGFRb.mmh
Assay: SPR, mAb captured, 25 C
Method: as §1

Row | Binder | Kd [nM] | koff [s⁻¹] | kon [M⁻¹ s⁻¹] | t1/2 [min] | binding result
21 | B1 | 3.68 | 0.00104 | 281000 | 11 | 
22 | B2 | 1.54 | 0.000596 | 386000 | 19 | 
23 | B3 | 0.89 | 0.000455 | 509000 | 25 | 
24 | B4 | 1.61 | 0.000688 | 428000 | 17 | 
25 | B5 | 3.19 | 0.000784 | 246000 | 15 | 
26 | B6 | 2.49 | 0.000744 | 299000 | 16 | 
27 | B7 |  |  |  |  | no binding

Target: T1, Macaca fascicularis PDGFRb.mmh
Assay: SPR, mAb captured, 25 C
Method: as §1

Row | Binder | Kd [nM] | koff [s⁻¹] | kon [M⁻¹ s⁻¹] | t1/2 [min] | binding result
28 | B1 | 6.39 | 0.00117 | 182000 | 10 | 
29 | B2 | 68.9 | 0.0094 | 136000 | 1.2 | 
30 | B3 | 1.73 | 0.000489 | 283000 | 24 | 
31 | B4 | 0.909 | 0.000714 | 786000 | 16 | 
32 | B5 | 5.2 | 0.000932 | 180000 | 12 | 
33 | B6 | 4.65 | 0.000882 | 190000 | 13 | 
34 | B7 |  |  |  |  | no binding

Target: T3, human PDGFRb.hFc
Assay: SPR, mAb captured, 37 C
Method: as §1

Row | Binder | Kd [nM] | koff [s⁻¹] | kon [M⁻¹ s⁻¹] | t1/2 [min]
35 | B1 | 3.1 | 0.000793 | 250000 | 15
36 | B2 | 0.206 | 7.66e-05 | 374000 | 151
37 | B3 | 0.76 | 0.000319 | 420000 | 36
38 | B4 | 0.606 | 0.000567 | 936000 | 20
39 | B5 | 3 | 0.000824 | 280000 | 14
40 | B6 | 2.08 | 0.000741 | 356000 | 16

Target: T2, hPDGFRb.mmh
Assay: SPR, mAb captured, 37 C
Method: as §1
Target sequence in this assay (P09619 other isoform, or with tags, fused parts or gaps): as above

Row | Binder | Kd [nM] | koff [s⁻¹] | kon [M⁻¹ s⁻¹] | t1/2 [min]
41 | B1 | 13.8 | 0.00624 | 452000 | 2
42 | B2 | 2.34 | 0.00171 | 733000 | 7
43 | B3 | 1.42 | 0.00147 | 1.04e+06 | 8
44 | B4 | 3.37 | 0.0028 | 833000 | 4
45 | B5 | 11.3 | 0.00354 | 314000 | 3
46 | B6 | 8.49 | 0.00335 | 394000 | 3

Target: T1, Macaca fascicularis PDGFRb.mmh
Assay: SPR, mAb captured, 37 C
Method: as §1

Row | Binder | Kd [nM] | koff [s⁻¹] | kon [M⁻¹ s⁻¹] | t1/2 [min]
47 | B1 | 31.6 | 0.00512 | 162000 | 2
48 | B2 | 95.6 | 0.0267 | 280000 | 0.4
49 | B3 | 2.86 | 0.00164 | 574000 | 7
50 | B4 | 4.05 | 0.00299 | 740000 | 4
51 | B5 | 14.4 | 0.00416 | 289000 | 3
52 | B6 | 9.26 | 0.00345 | 372000 | 3
